Where two headings read alike, the source gives them in different places.

The results in this text go back to patent publication US12018066.

Test [1] deals with SARS-CoV-2 spike protein receptor binding domain (RBD2) (SARS-CoV-2) (UniProt P0DTC2). The test is described as follows: SPR sandwich binning, ligand E08.
Test [2] has the same target. Put plainly: SPR sandwich binning, ligand CR3022.
The target is the same in test [3]. Put plainly: SPR sandwich binning, ligand H01.
For test [4] the target is unchanged. The test is described as follows: SPR sandwich binning, ligand S01.
Test [5] has the same target. Put plainly: SPR sandwich binning, ligand Anti-His.
For test [6] the target is unchanged. Put plainly: SPR sandwich binning, ligand G07.
Test [7] shares this target. Put plainly: SPR, immobilized antibody, RBD injected, 1:1 fit.
Test [8] has the same target. Put plainly: SPR sandwich binning, ligand E01.
Test [9] has the same target. The test is described as follows: SPR sandwich binning, ligand B04.
The target is the same in test [10]. Put plainly: SPR sandwich binning, ligand H05.
For test [11] the target is unchanged. The test is described as follows: SPR sandwich binning, ligand F07; light (intermediate) cell.
For test [12] the target is unchanged.

What is called Kd is the free concentration of one partner at which half of the binding sites on the other are occupied at equilibrium, for simple one-to-one binding. With “CR3022 (commercial anti-RBD2 antibody, reference IgG)”, the normalized analyte binding to RBD2 held by the immobilized ligand in test [1] was -0.1; in test [2], -0.14; in test [3], -0.01; in [4], 1.83; in test [5] it was 1.45; in test [6], 1.35. Besides, the normalized analyte binding to RBD2 held by the immobilized ligand in [8] was 1.63; in [9] it was 1.64; in [10], -0.14; in test [11], 0.23. Besides, the results for the Kd in test [7] and in test [12] were 110 nM and 114 nM, respectively.
